Assay results from the supplement of paper PMC12042874.
± gives the uncertainty stated by the source.

Assay: amyloid nucleation score (Sup35N fusion, yeast selection) (log enrichment); library NNK1; higher = more nucleation; inactive = no reads after selection
Summary of the method: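 Plasmid inserts were Illumina-sequenced at input and output from psi-negative yeast expressing Sup35N fused to peptides of 20 random codons. The yeast were induced with 100 μM copper sulfate for 24 hours and grown 7 days at 30°C on medium lacking adenine and uracil, and sequences with under 100 input reads were excluded. Nucleation score is the DiMSum log enrichment of output over input reads, centred on the mode score of non-aggregating sequences.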

| Substance | amyloid nucleation score |
| --- | --- |
| ISYSLRGSVRR | -0.032 ± 0.41 |
| ITCLRSCLLFNFSGCTTSDQ | 4.11 ± 0.071 |
| ITCYGKCYPSRDKL | 1.27 ± 0.56 |
| ITGPIEGGVTK | -0.118 ± 0.8 |
| ITMNVRSSYGLSVIMIELGL | 1.02 ± 0.76 |
| ITPDVGSGTFEV | 0.022 ± 1.1 |
| ITPYQQFWLIVDTIGNMMEI | 2.07 ± 0.2 |
| ITVRPLPYRPIDVHRYFAQH | 0.77 ± 0.34 |
| IVGSLYLELYSRR | 1.57 ± 0.18 |
| IVHMIYWVM | 0.009 ± 0.61 |
| IVIFPFFLVISDLYVVVSLG | -0.077 ± 0.53 |
| IVKWLMGMHWLMLAHGV | 0.181 ± 1.4 |
| IVLVR | -1.21 ± 0.69 |
| IVMCEAYFK | inactive |
| IVPPLSNCSFIG | -0.293 ± 0.6 |
| IVTCESGCRLKSSRDKCPSR | 0.284 ± 0.59 |
| IVVFQGVCTKMLRTDELIWR | 1.18 ± 0.2 |
| IVYTYRVNIVII | 7.528 ± 0.044 |
| IWCFLI | 0.333 ± 0.55 |
| IWILYLAFIVHKNVLLPRVL | 0.123 ± 0.49 |
| IWLLGSVHRLDSLVTDCKTS | 1.08 ± 0.63 |
| IWNVTPRGFDSAD | -0.345 ± 0.97 |

| Substance | amyloid nucleation score |
| --- | --- |
| IWWFSTFVRRRRAAVKVHKA | inactive |
| IWYFLCICSLYRLEYHLLDC | -0.405 ± 0.25 |
| IYCHWNGFRGPYVIPRGCVV | 0.819 ± 0.51 |
| IYGCTCVDFGLSSNS | -0.46 ± 0.84 |
| IYGTGFIWMFSVPKLERG | -0.537 ± 1.1 |
| IYNGVTGRYWTSHI | -0.989 ± 0.7 |
| IYNGWQIRGNVNMMLCVCEW | 6.568 ± 0.059 |
| IYNTYPTRRLRLQRGYYSME | -0.607 ± 1.5 |
| IYRSVANSMKVSEYQIPLDS | -0.18 ± 0.54 |
| IYVYVLSMMCPSEDR | 0.201 ± 0.84 |
| KANPDHIPRRLDYRGSGPSR | -0.482 ± 0.94 |
| KASDGLSINRGE | 0.48 ± 0.73 |
| KCFRYCKKNSNWLDCRLQIW | -1.26 ± 2.1 |
| KCLIYGKFIVRCVPINV | -0.088 ± 0.59 |
| KCQIGSMVLSYMVELPGDRD | -0.171 ± 0.36 |
| KCTENLFRHCIRLEGSTWKF | -1.34 ± 2.7 |
| KCTWTN | 0.255 ± 0.87 |
| KDALDHHLIMLRGYVVLQS | -0.891 ± 0.59 |
| KDEGLTEVFESWISWGW | -0.065 ± 0.9 |
| KDIEYCASMCESCPYMT | 2.86 ± 0.39 |
| KDMDSFSTTCLLLRLRGRTG | 0.053 ± 0.35 |
| KDRWTCSFVAVCMRYLFAKS | 0.134 ± 0.46 |

| Substance | amyloid nucleation score |
| --- | --- |
| KEGLRDGLLCRYQTCAG | 0.091 ± 0.48 |
| KEIINGCRR | 5 ± 0.1 |
| KELPSSSTCLKFS | -0.155 ± 0.44 |
| KESECITS | -0.849 ± 0.75 |
| KFFEFLYKFDPCRRYCRLCQ | 0.264 ± 0.36 |
| KFNITFVSVKSYKVPLSLDI | 4.81 ± 0.066 |
| KFRMCEFSGAYTYGVFKNLP | 0.834 ± 0.26 |
| KFRSEGWIGCESVIKW | 4.72 ± 0.078 |
| KFSSKFTSG | 0.436 ± 0.37 |
| KFVYSVGMTLSSGSFSVEIF | 5.02 ± 0.053 |
| KGAIPFSSDCGGLSGLILYC | 0.301 ± 0.54 |
| KGANADAYGRGYNAVFMLEW | -1.39 ± 1.2 |
| KGDMWMGPNESWVKVNLYRV | 0.039 ± 0.55 |
| KGISVTCEGK | 1.24 ± 0.79 |
| KGLGGFLSICNSVVVRQVWR | 0.098 ± 0.72 |
| KHPEM | 1.43 ± 0.38 |
| KIFERRLSMYRSVSFLSRQC | 0.15 ± 0.32 |
| KIGRGRSNAVLLLAEDVYVG | -0.57 ± 1.2 |
| KIPLNRIAVNASLRQRYCNP | 0.122 ± 0.27 |
| KIRVILYVPRVS | 1.76 ± 0.51 |
| KITSEPTKFYMGVCPSRSEL | -0.112 ± 0.44 |
| KKRSFLGYFVSLAFYNCYQY | 2.73 ± 0.075 |

| Substance | amyloid nucleation score |
| --- | --- |
| KKSYCYPFPFFSYV | 0.423 ± 0.65 |
| KKTGVVGVYK | -1.26 ± 1.1 |
| KKVSLRLSSAVILSANSAML | -0.258 ± 0.54 |
| KLDVSLKKYLD | 0.368 ± 0.31 |
| KLGGFVFGANVCCEDLSYEF | 0.984 ± 0.55 |
| KLIFKRSFNRMDLSSLCYFR | -0.471 ± 0.39 |
| KLLIP | -1.17 ± 0.58 |
| KLLSTDNLYVQSYLFEDCNR | -0.544 ± 0.59 |
| KLMVWITFGSWSRVGHWKGI | -0.387 ± 1.2 |
| KLNGNINFCFNCGNSGF | 7.27 ± 0.046 |
| KLQIPLGQVSLGSKVMKTGV | -1.08 ± 2.4 |
| KLRRSIDTCNVYVWS | -0.593 ± 0.23 |
| KLSRDFRGFYRT | inactive |
| KLWFVGSLYSGNVQVYVVVP | 4.49 ± 0.061 |
| KLWVNNQS | 0.198 ± 0.57 |
| KNFYDIKPLYALYSENLRLH | 0 ± 0.46 |
| KNMAYHDSLDSVYPAVG | 0.32 ± 0.57 |
| KNQKMVYTRIGLPGFG | -0.42 ± 0.56 |
| KPLLTQQK | -0.356 ± 0.54 |
| KQECQYCWSG | -1.15 ± 0.36 |
| KRFTRTNILRMTCT | 0.901 ± 0.48 |
